From PMC11109380

Key:
[1] = molecular target: human CD3ε cytoplasmic tail fused to GST, Y50E (human); assay: pull-down; GST-CD3ε cytoplasmic tail variants on glutathione sepharose beads, incubated with Jurkat T cell lysate (lysis buffer with 0.3% Brij96V, 20 mM Tris-HCl pH 8, 137 mM NaCl) overnight at 4°C; immunoblot, signals normalised to GST
[2] = molecular target: human CD3ε cytoplasmic tail fused to GST, Y39/50E (human); assay: as above
[3] = molecular target: human CD3ε Y50E-FLAG expressed in JK εKO cells (human); assay: proximity ligation; in situ PLA (Duolink) with goat anti-CD3ε and mouse anti-LCK in JK εKO cells expressing hCD3ε variants; unstimulated or stimulated with 5 μg/ml anti-CD3ε (OKT3) for 5 min at 37°C; dots per cell normalised to the stimulated WT

Src family kinase LCK (from UniProt P06239 1-509) (enzyme)
reduction of binding compared to CD3ε WT [1]: 80% | reduction of binding compared to CD3ε WT [2]: 80% | reduction of TCR-LCK proximity compared to WT [3]: 60% | residual binding [3]: < 30%
